Reference: PMC10082157

Tests used:
[1] = molecular target: TCR–CD3 complex on T cells (human (endogenous in Jurkat and primary T cells)) (UniProt P07766)
[2] = molecular target: human CD19 (human (endogenous in Raji)) (UniProt P15391)
Sequence of human CD19 (human (endogenous in Raji)) (P15391 20-556): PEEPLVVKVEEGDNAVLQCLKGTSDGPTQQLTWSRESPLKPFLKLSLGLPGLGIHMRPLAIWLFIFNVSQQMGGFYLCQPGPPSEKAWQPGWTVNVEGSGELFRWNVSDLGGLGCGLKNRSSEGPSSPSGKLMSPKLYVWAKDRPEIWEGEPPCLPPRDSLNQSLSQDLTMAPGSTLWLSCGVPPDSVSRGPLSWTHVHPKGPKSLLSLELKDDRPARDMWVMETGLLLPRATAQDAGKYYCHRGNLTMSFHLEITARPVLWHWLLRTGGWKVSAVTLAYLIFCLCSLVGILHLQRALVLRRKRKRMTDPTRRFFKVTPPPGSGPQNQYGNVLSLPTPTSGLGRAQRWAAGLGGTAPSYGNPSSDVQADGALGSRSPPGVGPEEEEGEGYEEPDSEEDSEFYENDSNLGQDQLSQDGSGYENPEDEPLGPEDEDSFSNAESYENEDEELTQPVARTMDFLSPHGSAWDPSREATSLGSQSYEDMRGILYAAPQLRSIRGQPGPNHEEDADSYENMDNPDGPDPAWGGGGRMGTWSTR

Sequence of TCR–CD3 complex on T cells (human (endogenous in Jurkat and primary T cells)) (P07766 whole entry, looked up, one chain of several): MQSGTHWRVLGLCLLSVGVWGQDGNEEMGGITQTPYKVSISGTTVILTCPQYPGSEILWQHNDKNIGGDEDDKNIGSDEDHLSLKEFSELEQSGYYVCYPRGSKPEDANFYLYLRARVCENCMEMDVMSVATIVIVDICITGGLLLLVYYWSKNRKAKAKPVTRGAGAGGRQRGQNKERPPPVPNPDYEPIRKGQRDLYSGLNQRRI

activation of Jurkat-ZsG NFAT reporter cells (ZsGreen) in droplets with CD19+ Raji cells and 100 ng/ml Blinatumomab; percent activated [1]: 40%
activation of Jurkat-ZsG NFAT reporter cells (ZsGreen) in droplets with CD19+ Raji cells and 100 ng/ml Blinatumomab; percent activated [2]: 40%
Substance: Blinatumomab (CD19xCD3 BiTE) (bispecific antibody)
